Test results: patent US20250043319A1, “BIOSYNTHESIS OF CYCLOLAVANDULYL DERIVATIVES OF AROMATIC COMPOUNDS” (Invizyne Technologies, Inc., priority 2022, published 2025)

Tests used:
Type in all cases: biochemical
Details in all cases: cell-free reaction with CLDS and DMAPP (CLPP donor), 28° C., 48 hours, QTOF LC/MS, with vs without prenyltransferase
[1] = cell-free cyclolavandulylation activity screening of prenyltransferases, substrate resveratrol
Description: (§1) Genes encoding the following prenyltransferases were codon-optimized, synthesized, and cloned into the pET28a vector for protein expression and isolation/purification as described in Example 1. • NphB (Accession: 1ZB6_A) (SEQ ID NO: 8) • AbPT (Accession: KPI30840.1) (SEQ ID NO: 9) • SkPT (Accession: Q2L6E3.1) (SEQ ID NO: 10) • SvPT (Accession: WP_078899560.1) (SEQ ID NO: 11) • Sr1310PT (Accession: WP_057602682.1) (SEQ ID NO: 12) • NapT8 (Accession: ABS50461.1) (SEQ ID NO: 13) • NapT9 (Accession: ABS50490.1) (SEQ ID NO: 14) • Mcl23PT (Accession: AGH68908.1) (SEQ ID NO: 15) • CnqP3PT (Accession: WP_047018069.1) (SEQ ID NO: 16) • AtaWTPT (Accession: AMB20850.1) (SEQ ID NO: 17) • MzPT1 (Accession: WP_135330628.1) (SEQ ID NO: 18) • MzPT2 (Accession: WP_135330626.1) (SEQ ID NO: 19) B. Cell-Free Biosynthesis Reaction with CLPP and Various Aromatic Substrates
(§2) The cyclolavandulyl diphosphate synthase, CLDS was prepared as described in Example 1 and used in the synthesis of CLPP.
(§3) Stocks of the various aromatic compounds used as substrates for cyclolavandulylation activity screening were obtained from the following commercial sources: • Resveratrol (Fisher Scientific) 200 mM stock in DMSO • Luteolin (Fisher Scientific) 200 mM stock in DMSO • Naringenin (Fisher Scientific) 200 mM stock in DMSO • Tryptamine (Fisher Scientific) 200 mM stock in DMSO • Tryptophan (Fisher Scientific) 40 mM stock in water • Olivetolic acid (Toronto Research Chemicals) 200 mM stock in DMSO • Divarinic acid (Toronto Research Chemicals) 200 mM stock in DMSO • Phorolic acid (prepared in house) 200 mM stock in DMSO • Olivetol (Fisher Scientific) 200 mM stock in DMSO • Screening for cell-free biosynthesis was carried out as follows. 10 mM DMAPP, 5 mM MgCl2, 100 mM Tris-HCl (pH=8), and 4 mg/mL CLDS (SEQ ID NO: 4) were combined in a 6.80 mL reaction, which was incubated at 28° C. for 48 hours. This mixture was aliquoted into a 96-well plate (80 μL per well). The various prenyltransferases (18 μL, ˜1 g/L final concentration) listed above were screened across various substrates (2 μL of stock solution, variable concentration shown above), which were added to the wells and incubated at 28° C. for an additional 48 hours.
(§4) Analysis of the reaction mixture was carried out as follows: 50 μL of the reaction mixture were added to 1 mL MeOH. The resulting solution was vortexed, centrifuged at 17,200 g for 5 minutes, and transferred to an HPLC vial for analysis. HRMS-QTOF analyses of the cell free reactions was performed on an Agilent Technologies 6545 Accurate Mass QTOF LC/MS with a reverse-phase column (Agilent Infinity Lab Poroshell 120 ECC18, 2.7 μm, 3.0×50 mm) using positive ESI with 1% MeCN—H2O (0.1% FA) for 2 min followed by a linear gradient of 1-99% MeCN—H2O (0.1% FA) for 14 min with a flow rate of 0.4 mL/min.
(§5) Mass spectrometric (MS) analysis of chromatograms was carried out using MassHunter Qualitative Analysis 10.0. Targeted metabolomics using the exact m/z of the calculated proton adduct [H^+] in the presence and absence of prenyltransferase indicated the presence of cyclolavandulylated product.

[2] = cell-free cyclolavandulylation activity screening of prenyltransferases, substrate luteolin
Description: as §1, §2, §3, §4, §5

[3] = cell-free cyclolavandulylation activity screening of prenyltransferases, substrate naringenin
Description: as §1, §2, §3, §4, §5

[4] = cell-free cyclolavandulylation activity screening of prenyltransferases, substrate tryptamine
Description: as §1, §2, §3, §4, §5

[5] = cell-free cyclolavandulylation activity screening of prenyltransferases, substrate tryptophan
Description: as §1, §2, §3, §4, §5

[6] = cell-free cyclolavandulylation activity screening of prenyltransferases, substrate olivetolic acid
Description: as §1, §2, §3, §4, §5

B1: Sr1310PT: prenyltransferase, Accession: WP_057602682.1, SEQ ID NO: 12 (protein, listed as Streptomyces sp.)
chain: MSGAADVERVYAAMEEAAGLLDVSCAREKIYPLLTVFQDTLTDGVVVFSMASGRRSTELDFSISVPVSQGDPYATVVKEGLFQATGSPVDELLADTVAHLPVSMFAIDGEVTGGFKKTYAFFPTDDMPGVAQLAAIPSMPASVAENAELFARYGLDKVQMTSMDYKKRQVNLYFSDLKQEYLQPESVVALARELGLRVPGELGLEFCKRSFAVYPTLNWDTGKIDRLCFAAISTDPTLVPSEDERDIEMFRNYATKAPYAYVGEKRTLVYGLTLSSTEEYYKLGAYYHITDIQRQLLKAFDALED
No: presence of cyclolavandulylated product, Aromatic Compound (Substrate) Resveratrol [1] | presence of cyclolavandulylated product, Aromatic Compound (Substrate) Luteolin [2] | presence of cyclolavandulylated product, Aromatic Compound (Substrate) Naringenin [3] | presence of cyclolavandulylated product, Aromatic Compound (Substrate) Tryptamine [4] | presence of cyclolavandulylated product, Aromatic Compound (Substrate) Tryptophan [5] | presence of cyclolavandulylated product, Aromatic Compound (Substrate) Olivetolic Acid [6]

B2: Mcl23PT: prenyltransferase, Accession: AGH68908.1, SEQ ID NO: 15 (protein, listed as Streptomyces sp.)
chain: MSGETDAEELCSAIEETARLVGAPCSREKIWPILTEYRSGFAEGGVVFSAQAGENHAGELDYGLAVPPRIDDPYAHALAHGFVTETDHPVAALLSDIRERCAVTEHFADCGVVGGFRKLYAHFPRDLQKVSEIADIPSMPRAVAENVGLFTRYGLENVVMVGVNYKNKTVSLYFQFTAEGRPRPSAIRSMLGDIGMTEPNERMLDFASNSFRANITLSWDSPKILRVAFAPPPGAGLNLSTVPIPTGPHLEDFVTRAPRAYDGERMNLFAVKWTQDKEFLEVCSYYQLPAGYEPIRQMEIHKEQG
No: presence of cyclolavandulylated product, Aromatic Compound (Substrate) Resveratrol [1] | presence of cyclolavandulylated product, Aromatic Compound (Substrate) Luteolin [2] | presence of cyclolavandulylated product, Aromatic Compound (Substrate) Naringenin [3] | presence of cyclolavandulylated product, Aromatic Compound (Substrate) Tryptamine [4] | presence of cyclolavandulylated product, Aromatic Compound (Substrate) Tryptophan [5] | presence of cyclolavandulylated product, Aromatic Compound (Substrate) Olivetolic Acid [6]

B3: SvPT: prenyltransferase, Accession: WP_078899560.1, SEQ ID NO: 11 (protein, listed as Streptomyces sp.)
chain: MSEASELADIYSAIEETAQLLDVPCSRDKVQPALAAFGDGLADAHIVFSMATGERYKGELAFDFTVPTAAGDPYAIALANGLVEETDHPIRTLFSDVQKRCPVDSYGVDYGIVGGFKKTYISFPLGDLQRLSALVGIPSMPRALAEHADFFASHGLDDKVSAIAIDYAHRTWNVYFSGIPAEVKEPQTLQSVLQKFGLPEPSEQLMDFIRTSFAMYTTFGWDSTKAERICFSARSSDPTALPAQFEPQIGKFAKSAPYTYTGERVLTYAGALSPSEEFYKLATFYQKTSKLSDRVRPAT
No: presence of cyclolavandulylated product, Aromatic Compound (Substrate) Resveratrol [1] | presence of cyclolavandulylated product, Aromatic Compound (Substrate) Luteolin [2] | presence of cyclolavandulylated product, Aromatic Compound (Substrate) Naringenin [3] | presence of cyclolavandulylated product, Aromatic Compound (Substrate) Tryptamine [4] | presence of cyclolavandulylated product, Aromatic Compound (Substrate) Tryptophan [5] | presence of cyclolavandulylated product, Aromatic Compound (Substrate) Olivetolic Acid [6]

B4: NapT8: prenyltransferase, Accession: ABS50461.1, SEQ ID NO: 13 (protein, listed as Streptomyces aculeolatus)
chain: MEGLYAAIEEASGLLDVAPSRDKVWPILSAYELDKVVVAFRVTTRGSKDLDCRFTALPADVNPYRYAVSKGIAEATDHPVGTLLDDVQANIPVTAHGVDFGVVEGFRKTWTFLPGNDLQKLSKVAALPSMPPSLAENLDFYARYGLDDKNSMIGIDYPSRTVNVYFLQFPDETREPETVRAMLRDLGLPEPSEQMLTLAKQAVGIYTTLTWDSPKIQRITFATLVPDAEALPGRIAVEPSVEKFARNVPHTYPGPVQGLYNVASYSGGEYFKLQTYHQLAEGSLEARVLLGAAGAGS
No: presence of cyclolavandulylated product, Aromatic Compound (Substrate) Resveratrol [1] | presence of cyclolavandulylated product, Aromatic Compound (Substrate) Luteolin [2] | presence of cyclolavandulylated product, Aromatic Compound (Substrate) Naringenin [3] | presence of cyclolavandulylated product, Aromatic Compound (Substrate) Tryptamine [4] | presence of cyclolavandulylated product, Aromatic Compound (Substrate) Tryptophan [5] | presence of cyclolavandulylated product, Aromatic Compound (Substrate) Olivetolic Acid [6]

B5: CnqP3PT: prenyltransferase, Accession: WP_047018069.1, SEQ ID NO: 16 (protein, listed as Streptomyces sp.)
chain: MSGAADVERVYSAMEEAARLLDITVSREKVRPALEAYHEVLADAVVVFSMASGRYATELDFSISVPAEAGDPYRVALAKGLTPRTDHPVGRLLADTQEHCPVSMFAFDGEITGGFKKTYAFFPTNDLQSASKLAEIPSMPDSVKENADLFARYGLDKVQMTSIDYKKKAVNLYFSEMSPDILGPDTVRSMLRDMGLKETGETGLTFARRSFSVYPTLNWETGRIERLCFAVISRDPTLAPAERAEDLAKFSKYANNAPYAYAGEARTLVYGLTLTPREEYYKLGSYYQISDIQRKLLKAFDSLND
No: presence of cyclolavandulylated product, Aromatic Compound (Substrate) Resveratrol [1] | presence of cyclolavandulylated product, Aromatic Compound (Substrate) Luteolin [2] | presence of cyclolavandulylated product, Aromatic Compound (Substrate) Naringenin [3] | presence of cyclolavandulylated product, Aromatic Compound (Substrate) Tryptamine [4] | presence of cyclolavandulylated product, Aromatic Compound (Substrate) Tryptophan [5] | presence of cyclolavandulylated product, Aromatic Compound (Substrate) Olivetolic Acid [6]

B6: SkPT: prenyltransferase, Accession: Q2L6E3.1, SEQ ID NO: 10 (protein, listed as Streptomyces sp.)
chain: MPGTDDVAVDVASVYSAIEKSAGLLDVTAAREVVWPVLTAFEDVLEQAVIAFRVATNARHEGDFDVRFTVPEEVDPYAVALSRSLIAKTDHPVGSLLSDIQQLCSVDTYGVDLGVKSGFKKVWVYFPAGEHETLARLTGLTSMPGSLAGNVDFFTRYGLADKVDVIGIDYRSRTMNVYFAAPSECFERETVLAMHRDIGLPSPSEQMFKFCENSFGLYTTLNWDTMEIERISYGVKTENPMTFFARLGTKVEHFVKNVPYGVDTQKMVYAAVTSSGEEYYKLQSYYRWRSVSRLNAAYIAARDKEST
No: presence of cyclolavandulylated product, Aromatic Compound (Substrate) Resveratrol [1] | presence of cyclolavandulylated product, Aromatic Compound (Substrate) Luteolin [2] | presence of cyclolavandulylated product, Aromatic Compound (Substrate) Naringenin [3] | presence of cyclolavandulylated product, Aromatic Compound (Substrate) Tryptamine [4] | presence of cyclolavandulylated product, Aromatic Compound (Substrate) Tryptophan [5] | presence of cyclolavandulylated product, Aromatic Compound (Substrate) Olivetolic Acid [6]
